Data as given in publication PMC10532227.

Legend:
[1] = biological target: fluorescently labeled mononucleosomes assembled from octamers of recombinant human histones and DNA containing the 147 bp nucleosome positioning sequence 603 (human); test: spFRET microscopy; as a2 but nucleosomes N(13, 91) (1 nM) preincubated 15 min with EGCG (0.8 µM) before PARP1 (20 nM), or PARP1 preincubated with EGCG; TB150 buffer, room temperature; then NAD+ (20 µM), 45 min
[2] = biological target: fluorescently labeled mononucleosomes assembled from octamers of recombinant human histones and DNA containing the 147 bp nucleosome positioning sequence 603 (human); test: spFRET microscopy; nucleosomes N(13, 91) (1 nM; Cy3/Cy5 on nucleosomal DNA) with PARP1 (20 or 50 nM), 30 min at room temperature in TB150 buffer (20 mM Tris-HCl pH 7.9, 5 mM MgCl2, 150 mM KCl, 1 mM β-ME); then NAD+ (20 µM), 45 min; no EGCG
PARP1 = test: spFRET microscopy; conditions: buffer, salt, pH and temperature of binding assays not given in the material (Methods 4.4-4.7 empty)

Substance	percent of detected particles in the EGCG–nucleosome–PARP1 complex at 20 nM PARP1 and 0.8 µM EGCG [1]	percent of nucleosomes in the complex at 20 nM PARP1 [2]	binding signal (% nucleosomes bound) (PARP1; 20 nM PARP1, no EGCG)	binding signal (% nucleosomes bound) (PARP1; 20 nM PARP1 added to nucleosomes preformed with 0.8 uM EGCG)
human poly(ADP-ribose) polymerase 1 fused with hexahistidine tag at the N-terminus (from UniProt P09874 1-1014) (enzyme)	67%	65%		
N(13, 91) nucleosome			65	67
